Source: paper PMC12810643

Molecular target: endogenously expressed Gαi (human (endogenous in HEK293)) (UniProt P63096)
Assay: linear dichroism

Sequence of UniProt P63096 (P63096 whole entry): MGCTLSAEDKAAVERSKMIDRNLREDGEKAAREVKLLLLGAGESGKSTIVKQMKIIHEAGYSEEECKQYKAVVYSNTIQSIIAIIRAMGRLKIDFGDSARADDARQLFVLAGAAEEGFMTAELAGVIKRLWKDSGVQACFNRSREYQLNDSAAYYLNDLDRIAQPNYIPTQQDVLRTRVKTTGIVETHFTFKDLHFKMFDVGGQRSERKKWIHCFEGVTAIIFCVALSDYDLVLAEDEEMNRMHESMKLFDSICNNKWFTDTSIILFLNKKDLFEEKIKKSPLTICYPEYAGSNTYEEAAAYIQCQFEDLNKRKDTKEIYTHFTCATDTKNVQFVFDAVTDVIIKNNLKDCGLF

| percent of the FLIP molecules bound [%] | Substance |
| --- | --- |
| 15 | KB1753-cpmTurq2-HRas |
| 15 | KB1753-eGFP-HRas |
